# Assay results reported in paper doi:10.1101/2024.06.13.598860, “The Mlh1-Pms1 endonuclease uses ATP to preserve DNA discontinuities as strand discrimination signals to facilitate mismatch repair”.
# B1: intact 75-mer duplex (dsDNA)
# DNA 1: TCGACCTAAGTCTAGCAGGTCACGTCACGCTACCGAATTCTGACTTGCTAGGACATCTTTGCTCACGTTGACCCA
# DNA 2: TGGGTCAACGTGAGCAAAGATGTCCTAGCAAGTCAGAATTCGGTAGCGTGACGTGACCTGCTAGACTTAGGTCGA
# B2: discontinuous 75-mer duplex (single strand break) (dsDNA)
# DNA 1: B1 DNA 1
# DNA 2: TGGGTCAACGTGAGCAAAGATGTCCTAGCAAGTCAGA
# DNA 3: ATTCGGTAGCGTGACGTGACCTGCTAGACTTAGGTCGA
# What was measured:
# Mlh1-Pms1 [1] = target: T1, Mlh1-Pms1 (Saccharomyces cerevisiae (yeast), UniProt P38920;P14242 1-769;1-873); assay: EMSA; 120 mM NaCl, no ATP; 20 mM HEPES-KOH (pH not given), 0.1 mM DTT, 2 mM MgCl2, 40 ug/mL BSA, 6% glycerol; plasmid DNA 3.8 nM, 10 min room temperature, agarose EMSA; oligonucleotides plus 120 mM NaCl, 10 min 4 C, 4% PAGE; details: protein: recombinant, copies: 1;1, label: 5'-32P on CMO169
# Mlh1-Pms1 [2] = target: T1, Mlh1-Pms1; assay: EMSA; 120 mM NaCl, 0.5 mM ATP; 20 mM HEPES-KOH (pH not given), 0.1 mM DTT, 2 mM MgCl2, 40 ug/mL BSA, 6% glycerol; plasmid DNA 3.8 nM, 10 min room temperature, agarose EMSA; oligonucleotides plus 120 mM NaCl, 10 min 4 C, 4% PAGE; details: protein: recombinant, copies: 1;1, label: 5'-32P on CMO169
# [3] = nicked duplex, blunt ends, 1:2 1:3, nick between strands 2 and 3
# T1 sequence (P38920 whole entry, chain 1 of 2): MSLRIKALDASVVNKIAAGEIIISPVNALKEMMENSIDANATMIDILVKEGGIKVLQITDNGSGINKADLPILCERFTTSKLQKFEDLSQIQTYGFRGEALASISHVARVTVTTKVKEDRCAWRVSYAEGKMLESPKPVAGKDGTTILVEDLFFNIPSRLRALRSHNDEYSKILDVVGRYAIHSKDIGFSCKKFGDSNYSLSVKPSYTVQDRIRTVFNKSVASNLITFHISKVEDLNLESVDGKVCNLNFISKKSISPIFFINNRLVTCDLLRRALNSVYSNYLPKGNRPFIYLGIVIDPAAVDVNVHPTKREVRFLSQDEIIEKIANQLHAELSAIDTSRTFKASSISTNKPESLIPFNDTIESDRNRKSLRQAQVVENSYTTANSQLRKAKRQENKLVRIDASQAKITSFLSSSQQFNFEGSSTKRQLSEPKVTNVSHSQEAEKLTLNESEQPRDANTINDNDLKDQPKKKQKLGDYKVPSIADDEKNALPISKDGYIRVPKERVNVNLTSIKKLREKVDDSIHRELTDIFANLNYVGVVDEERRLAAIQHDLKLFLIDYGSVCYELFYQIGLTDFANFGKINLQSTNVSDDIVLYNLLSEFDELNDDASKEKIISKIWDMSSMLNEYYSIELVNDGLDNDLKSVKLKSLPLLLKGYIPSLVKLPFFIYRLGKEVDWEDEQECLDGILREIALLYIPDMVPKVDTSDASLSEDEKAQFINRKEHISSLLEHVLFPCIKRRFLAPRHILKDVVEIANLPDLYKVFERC
# T1 sequence (P14242 whole entry, chain 2 of 2): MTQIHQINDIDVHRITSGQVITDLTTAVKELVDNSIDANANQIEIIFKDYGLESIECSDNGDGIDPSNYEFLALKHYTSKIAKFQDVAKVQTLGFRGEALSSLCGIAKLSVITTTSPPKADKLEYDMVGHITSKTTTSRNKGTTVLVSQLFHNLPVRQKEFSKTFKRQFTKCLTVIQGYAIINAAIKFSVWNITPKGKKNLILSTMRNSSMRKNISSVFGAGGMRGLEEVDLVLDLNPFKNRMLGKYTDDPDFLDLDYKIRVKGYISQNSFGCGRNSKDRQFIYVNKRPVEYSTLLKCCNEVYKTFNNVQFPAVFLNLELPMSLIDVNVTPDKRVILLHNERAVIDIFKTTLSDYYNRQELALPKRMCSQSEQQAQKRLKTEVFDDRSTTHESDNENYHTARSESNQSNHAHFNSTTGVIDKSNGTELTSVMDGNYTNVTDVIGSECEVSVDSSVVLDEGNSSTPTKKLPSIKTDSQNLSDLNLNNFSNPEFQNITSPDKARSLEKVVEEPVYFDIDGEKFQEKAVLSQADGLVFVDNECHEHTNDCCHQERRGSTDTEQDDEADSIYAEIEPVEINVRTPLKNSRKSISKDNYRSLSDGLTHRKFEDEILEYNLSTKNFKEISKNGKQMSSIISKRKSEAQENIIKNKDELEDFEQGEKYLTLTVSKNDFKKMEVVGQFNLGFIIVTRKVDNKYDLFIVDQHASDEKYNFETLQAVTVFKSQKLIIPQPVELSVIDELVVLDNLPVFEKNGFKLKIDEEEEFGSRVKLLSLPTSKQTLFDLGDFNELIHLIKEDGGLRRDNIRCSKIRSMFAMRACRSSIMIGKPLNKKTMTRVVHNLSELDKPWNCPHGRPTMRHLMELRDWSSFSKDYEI
Binder,Kd (Mlh1-Pms1 [1]; blunt),Kd (Mlh1-Pms1 [2]; blunt),Kd (Mlh1-Pms1 [1]; [3]),Kd (Mlh1-Pms1 [2]; [3])
B1,96 ± 20 nM,79 ± 8 nM,,
B2,,,79 ± 3 nM,77 ± 6 nM
